Drawing on paper PMC7948415, this text covers koff, fast phase of a double exponential decay, koff, slow phase of a double exponential decay and stoichiometry N for three substances.

A word on the stoichiometry N: it is a count of units in the complex or per binding partner.

For one assay, the target named is properdin (human) (UniProt P27918). Description: SPR; Biacore T100; properdin amine-coupled to a CM5 chip (5000 RU); C3b (20 μg/ml), factor B (20 μg/ml) and factor D (2 μg/ml) in HBS/MgCl2 injected at 30 μl/min for 120 s without or with SG7.AF, albicin or anophensin (Fig. 9C: 56.8 nM C3b, 107.5 nM factor B, 41.7 nM factor D, inhibitors 1 μM); dissociation at 1 μM inhibitor fitted to a double exponential decay. On the technique in general: SPR reads the build-up and loss of mass on a sensor chip optically.
Sequence of properdin (human) (P27918 28-469): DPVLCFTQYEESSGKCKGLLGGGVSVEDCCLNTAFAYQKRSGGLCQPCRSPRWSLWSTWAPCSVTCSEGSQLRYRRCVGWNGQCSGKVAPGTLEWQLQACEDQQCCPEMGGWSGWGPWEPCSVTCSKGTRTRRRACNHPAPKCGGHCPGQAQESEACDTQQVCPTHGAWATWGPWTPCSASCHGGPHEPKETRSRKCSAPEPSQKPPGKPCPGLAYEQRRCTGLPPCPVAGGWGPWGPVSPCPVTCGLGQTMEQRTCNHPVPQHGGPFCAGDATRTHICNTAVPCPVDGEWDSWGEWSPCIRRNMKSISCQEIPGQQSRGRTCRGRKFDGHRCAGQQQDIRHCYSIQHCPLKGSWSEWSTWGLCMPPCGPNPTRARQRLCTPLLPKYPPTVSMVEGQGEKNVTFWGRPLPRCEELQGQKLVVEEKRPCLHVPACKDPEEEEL

Assay [1] has as its target variant of anophensin with the N-terminus extended by the retention of three amino acids from the signal peptide (Anopheles stephensi) (UniProt A5HUP6). Description: crystal structure; lengthened anophensin, space group P2_(1)2_(1)2, three monomers in the asymmetric unit, SAD with a selenomethionine derivative.

In the assay with properdin (human), “SG7.AF-bound C3bBb complex (from UniProt P01024 749-1663; P01024 749-1663; P00751 260-764; C0HMB5 1-119)” had a koff, fast phase of a double exponential decay of 0.02 s⁻¹ and a koff, slow phase of a double exponential decay of 0.003 s⁻¹.

In the assay with properdin (human), “albicin-bound C3bBb complex (from UniProt P01024 749-1663; P01024 749-1663; P00751 260-764; A0A1Y9G8D0 27-142)” had a koff, fast phase of a double exponential decay of 0.02 s⁻¹ and a koff, slow phase of a double exponential decay of 0.003 s⁻¹.

Turning to “variant of anophensin with the N-terminus extended by the retention of three amino acids from the signal peptide (from UniProt A5HUP6 28-142) (natural protein)”, the stoichiometry N in assay [1] is 2.
